We go through two molecules from US20140057833A1 (TEMPLE UNIVERSITY OF THE COMMONWEALTH SYSTEM OF HIGHER …, published 2014).

Non-standard residues stand in square brackets, D forms with d. No end group written: not given here. βAla = NCCC(=O)O

In the experiment the target is T1, AdipoR1 (UniProt Q96A54 1-375, limits assumed).
T1 sequence (looked up): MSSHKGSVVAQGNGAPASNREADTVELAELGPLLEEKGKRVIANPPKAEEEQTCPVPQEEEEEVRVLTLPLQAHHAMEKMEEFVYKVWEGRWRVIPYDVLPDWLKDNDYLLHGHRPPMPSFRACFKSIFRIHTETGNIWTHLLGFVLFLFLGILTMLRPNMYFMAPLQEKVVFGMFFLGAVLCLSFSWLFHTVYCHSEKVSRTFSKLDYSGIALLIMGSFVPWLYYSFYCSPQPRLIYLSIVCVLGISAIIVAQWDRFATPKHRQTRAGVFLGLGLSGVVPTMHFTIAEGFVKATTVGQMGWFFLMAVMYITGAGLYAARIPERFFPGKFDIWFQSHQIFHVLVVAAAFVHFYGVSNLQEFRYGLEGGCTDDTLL
Description: cell-based or functional assay.

In turn, “globular adiponectin (gAd) (from UniProt Q15848 108-244) (ligand)” came in with an MCF-7 cell growth restriction at 50 ng/mL of 18%.

B1: ADP 25-β-AlaNH2 (peptide)
peptide: NIPGLYYFAY[βAla]-NH2
modifications: N-terminus assumed
SMILES: CC[C@H](C)[C@H](NC(=O)[C@@H](N)CC(N)=O)C(=O)N1CCC[C@H]1C(=O)NCC(=O)N[C@@H](CC(C)C)C(=O)N[C@@H](Cc1ccc(O)cc1)C(=O)N[C@@H](Cc1ccc(O)cc1)C(=O)N[C@@H](Cc1ccccc1)C(=O)N[C@@H](C)C(=O)N[C@@H](Cc1ccc(O)cc1)C(=O)NCCC(N)=O
As to B1, the “MCF-7 cell proliferation inhibition at 50 ng/mL relative to untreated controls” value was found to be 20%.
